The record followed here is paper PMC8931191.

This assay deals with 3HA-MCHR1 (melanin-concentrating hormone receptor 1) (mouse) (UniProt Q8JZL2).
Sequence of UniProt Q8JZL2 (Q8JZL2 whole entry): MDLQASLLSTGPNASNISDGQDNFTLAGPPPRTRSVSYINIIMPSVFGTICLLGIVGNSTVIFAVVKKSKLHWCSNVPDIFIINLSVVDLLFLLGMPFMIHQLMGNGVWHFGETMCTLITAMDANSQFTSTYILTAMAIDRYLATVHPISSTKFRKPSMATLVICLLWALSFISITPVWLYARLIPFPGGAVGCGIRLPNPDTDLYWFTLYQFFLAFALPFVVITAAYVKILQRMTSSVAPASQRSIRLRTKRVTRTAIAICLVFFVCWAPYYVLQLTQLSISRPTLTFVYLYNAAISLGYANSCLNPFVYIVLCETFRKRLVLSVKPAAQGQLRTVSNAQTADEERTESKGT

B1: Melanin concentrating hormone (MCH) (peptide)
peptide: DFDMLRCMLGRVYRPCWQV
Regarding B1, the LogEC50 of MCH (10^-11 to 10^-6 M), NFAT-luciferase Ca2+ reporter in HEK293T cells with MCHR1 alone is -8.15 log M; the LogEC50 of MCH, NFAT-luciferase Ca2+ reporter in HEK293T cells with MCHR1 and MRAP2 WT co-transfected (1:9) was -7.06 log M; the LogEC50 of MCH, NFAT-luciferase Ca2+ reporter in HEK293T cells with MCHR1 and MRAP2 t97 co-transfected (1:9) was -7.34 log M; the LogEC50 of MCH, NFAT-luciferase Ca2+ reporter in HEK293T cells with MCHR1 and MRAP2 t118 co-transfected (1:9) is -7.59 log M. Further, the LogEC50 of MCH, NFAT-luciferase Ca2+ reporter in HEK293T cells with MCHR1 and MRAP2 t143 co-transfected (1:9) was -7.6 log M; the LogEC50 of MCH, NFAT-luciferase Ca2+ reporter in HEK293T cells with MCHR1 and MRAP2 Δ4–11 co-transfected (1:9) is -7.24 log M; the LogEC50 of MCH, NFAT-luciferase Ca2+ reporter in HEK293T cells with MCHR1 and MRAP2 Δ12–25 co-transfected (1:9) was -6.76 log M; the LogEC50 of MCH, NFAT-luciferase Ca2+ reporter in HEK293T cells with MCHR1 and MRAP2 Δ26–35 co-transfected (1:9) was -7.55 log M. The LogEC50 of MCH, NFAT-luciferase Ca2+ reporter in HEK293T cells with MCHR1 and MRAP2 Δ36–45 co-transfected (1:9) is -6.64 log M; the LogEC50 of MCH, NFAT-luciferase Ca2+ reporter in HEK293T cells with MCHR1 and MRAP2 Δct co-transfected (1:9) was -7.51 log M.
